Results: publication PMC9482650, “Quantitative fragmentomics allow affinity mapping of interactomes” (Nature Communications, 2022)

T1: DFNB31_1, Q9P202
T1 sequence (Q9P202 135-233, limits assumed, looked up): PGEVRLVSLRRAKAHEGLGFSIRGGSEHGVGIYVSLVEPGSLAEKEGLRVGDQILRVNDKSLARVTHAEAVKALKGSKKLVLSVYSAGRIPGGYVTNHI

T2: DLG3_1, Q92796
T2 sequence (Q92796 125-227, limits assumed, looked up): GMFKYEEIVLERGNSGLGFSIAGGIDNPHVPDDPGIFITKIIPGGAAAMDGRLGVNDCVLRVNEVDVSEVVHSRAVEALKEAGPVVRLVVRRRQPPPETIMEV

T3: DLG3_2, Q92796
T3 sequence (Q92796 221-321, limits assumed, looked up): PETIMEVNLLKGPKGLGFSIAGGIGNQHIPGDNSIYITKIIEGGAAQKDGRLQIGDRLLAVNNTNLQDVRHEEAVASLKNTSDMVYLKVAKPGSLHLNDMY

T4: GRIP1_2, Q9Y3R0
T4 sequence (Q9Y3R0 145-248, limits assumed, looked up): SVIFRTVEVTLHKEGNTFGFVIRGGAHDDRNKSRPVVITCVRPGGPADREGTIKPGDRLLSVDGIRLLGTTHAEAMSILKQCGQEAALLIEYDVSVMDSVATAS

T5: GRIP1_4, Q9Y3R0
T5 sequence (Q9Y3R0 467-571, limits assumed, looked up): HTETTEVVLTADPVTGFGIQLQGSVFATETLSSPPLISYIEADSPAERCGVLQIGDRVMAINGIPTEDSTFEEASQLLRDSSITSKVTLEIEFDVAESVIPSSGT

T6: HTRA3, P83110
T6 sequence (P83110 354-453, limits assumed, looked up): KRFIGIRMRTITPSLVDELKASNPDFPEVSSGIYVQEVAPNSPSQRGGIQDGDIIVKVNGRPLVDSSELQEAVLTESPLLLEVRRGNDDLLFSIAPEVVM

T7: LIN7B, Q9HAP6
T7 sequence (Q9HAP6 88-185, limits assumed, looked up): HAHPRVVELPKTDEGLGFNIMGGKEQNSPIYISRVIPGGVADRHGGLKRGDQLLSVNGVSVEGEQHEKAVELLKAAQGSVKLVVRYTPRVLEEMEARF

T8: MPDZ_10, O75970
T8 sequence (O75970 1624-1722, limits assumed, looked up): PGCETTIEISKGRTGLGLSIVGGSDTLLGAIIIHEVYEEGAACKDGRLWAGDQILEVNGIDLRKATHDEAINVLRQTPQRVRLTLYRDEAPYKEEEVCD

T9: PARD3B_1, Q8TEW8
T9 sequence (Q8TEW8 196-299, limits assumed, looked up): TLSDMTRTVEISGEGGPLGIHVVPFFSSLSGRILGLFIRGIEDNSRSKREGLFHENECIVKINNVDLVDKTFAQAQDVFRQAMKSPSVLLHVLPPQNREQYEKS

T10: PTPN13_1, Q12923
T10 sequence (Q12923 1088-1188, limits assumed, looked up): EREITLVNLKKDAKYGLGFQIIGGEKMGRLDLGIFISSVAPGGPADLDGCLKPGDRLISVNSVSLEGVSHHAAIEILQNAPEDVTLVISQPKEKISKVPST

T11: RHPN1, Q8TCX5
T11 sequence (Q8TCX5 508-602, limits assumed, looked up): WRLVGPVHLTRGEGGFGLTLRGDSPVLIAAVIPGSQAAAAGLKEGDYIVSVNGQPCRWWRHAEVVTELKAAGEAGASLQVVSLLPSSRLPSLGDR

T12: SYNJ2BP, P57105
T12 sequence (P57105 8-110, limits assumed, looked up): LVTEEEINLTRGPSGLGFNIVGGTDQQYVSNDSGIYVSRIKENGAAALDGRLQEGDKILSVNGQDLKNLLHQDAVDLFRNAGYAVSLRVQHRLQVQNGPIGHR


Biological target: T1, DFNB31_1, Q9P202
Assay: holdup assay
Set-up: key: below the threshold = too weak to quantify, mostly under pKd 3.1 to 4
Details: plain residues with an end cap or a label only (N-terminal biotin on a linker: ado-ado)

| Binder | pKd |
| --- | --- |
| TSQESEDTYL [TBC1D10A, Q9BXI6] | 3.62 |
| KKMPSIESDV [GRIN2A, Q12879] | below the threshold |

Biological target: DLG1_3, Q12959
Assay: holdup assay
Set-up: key: below the threshold = too weak to quantify, mostly under pKd 3.1 to 4
Details: plain residues with an end cap or a label only (N-terminal biotin on a linker: ado-ado)

Chain of DLG1_3, Q12959 (Q12959 457-571): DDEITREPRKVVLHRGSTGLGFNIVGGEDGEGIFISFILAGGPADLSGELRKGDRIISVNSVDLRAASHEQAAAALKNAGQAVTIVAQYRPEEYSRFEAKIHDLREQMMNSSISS

| Binder | pKd |
| --- | --- |
| TSQESEDTYL [TBC1D10A, Q9BXI6] | below the threshold |
| KKMPSIESDV [GRIN2A, Q12879] | below the threshold |

Biological target: T2, DLG3_1, Q92796
Assay: holdup assay
Set-up: key: below the threshold = too weak to quantify, mostly under pKd 3.1 to 4
Details: plain residues with an end cap or a label only (N-terminal biotin on a linker: ado-ado)

| Binder | pKd |
| --- | --- |
| TSQESEDTYL [TBC1D10A, Q9BXI6] | below the threshold |
| KKMPSIESDV [GRIN2A, Q12879] | 4.35 |

Biological target: T3, DLG3_2, Q92796
Assay: holdup assay
Set-up: key: below the threshold = too weak to quantify, mostly under pKd 3.1 to 4
Details: plain residues with an end cap or a label only (N-terminal biotin on a linker: ado-ado)

| Binder | pKd |
| --- | --- |
| TSQESEDTYL [TBC1D10A, Q9BXI6] | 3.61 |
| KKMPSIESDV [GRIN2A, Q12879] | 5.25 |

Biological target: DLG4_1, P78352
Assay: holdup assay
Set-up: key: below the threshold = too weak to quantify, mostly under pKd 3.1 to 4
Details: plain residues with an end cap or a label only (N-terminal biotin on a linker: ado-ado)

Chain of DLG4_1, P78352 (P78352 62-152): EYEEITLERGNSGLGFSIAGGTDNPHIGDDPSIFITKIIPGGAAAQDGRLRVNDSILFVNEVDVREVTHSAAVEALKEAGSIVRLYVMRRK

| Binder | pKd |
| --- | --- |
| TSQESEDTYL [TBC1D10A, Q9BXI6] | below the threshold |
| KKMPSIESDV [GRIN2A, Q12879] | 4.71 |

Biological target: GORASP2, Q9H8Y8
Assay: holdup assay
Set-up: key: below the threshold = too weak to quantify, mostly under pKd 3.1 to 4
Details: plain residues with an end cap or a label only (N-terminal biotin on a linker: ado-ado)

| Binder | pKd |
| --- | --- |
| TSQESEDTYL [TBC1D10A, Q9BXI6] | below the threshold |
| KKMPSIESDV [GRIN2A, Q12879] | below the threshold |

Biological target: T4, GRIP1_2, Q9Y3R0
Assay: holdup assay
Set-up: key: below the threshold = too weak to quantify, mostly under pKd 3.1 to 4
Details: plain residues with an end cap or a label only (N-terminal biotin on a linker: ado-ado)

| Binder | pKd |
| --- | --- |
| TSQESEDTYL [TBC1D10A, Q9BXI6] | below the threshold |
| KKMPSIESDV [GRIN2A, Q12879] | below the threshold |

Biological target: T5, GRIP1_4, Q9Y3R0
Assay: holdup assay
Set-up: key: below the threshold = too weak to quantify, mostly under pKd 3.1 to 4
Details: plain residues with an end cap or a label only (N-terminal biotin on a linker: ado-ado)

| Binder | pKd |
| --- | --- |
| TSQESEDTYL [TBC1D10A, Q9BXI6] | below the threshold |
| KKMPSIESDV [GRIN2A, Q12879] | below the threshold |

Biological target: HTRA1, Q92743
Assay: holdup assay
Set-up: key: below the threshold = too weak to quantify, mostly under pKd 3.1 to 4
Details: plain residues with an end cap or a label only (N-terminal biotin on a linker: ado-ado)

Chain of HTRA1, Q92743 (Q92743 360-477): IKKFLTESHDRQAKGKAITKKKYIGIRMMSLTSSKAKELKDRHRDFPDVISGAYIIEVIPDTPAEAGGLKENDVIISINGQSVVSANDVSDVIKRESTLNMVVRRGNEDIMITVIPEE

| Binder | pKd |
| --- | --- |
| TSQESEDTYL [TBC1D10A, Q9BXI6] | 4.7 |
| KKMPSIESDV [GRIN2A, Q12879] | below the threshold |

Biological target: T6, HTRA3, P83110
Assay: holdup assay
Set-up: key: below the threshold = too weak to quantify, mostly under pKd 3.1 to 4
Details: plain residues with an end cap or a label only (N-terminal biotin on a linker: ado-ado)

| Binder | pKd |
| --- | --- |
| TSQESEDTYL [TBC1D10A, Q9BXI6] | below the threshold |
| KKMPSIESDV [GRIN2A, Q12879] | below the threshold |

Biological target: IL16_1, Q14005
Assay: holdup assay
Set-up: key: below the threshold = too weak to quantify, mostly under pKd 3.1 to 4
Details: plain residues with an end cap or a label only (N-terminal biotin on a linker: ado-ado)

Chain of IL16_1, Q14005 (Q14005 210-306): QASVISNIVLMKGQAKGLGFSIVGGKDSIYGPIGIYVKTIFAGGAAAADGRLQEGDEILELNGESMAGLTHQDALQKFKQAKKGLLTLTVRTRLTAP

| Binder | pKd |
| --- | --- |
| TSQESEDTYL [TBC1D10A, Q9BXI6] | below the threshold |
| KKMPSIESDV [GRIN2A, Q12879] | 4.05 |

Biological target: Inadl_10, Q8NI35
Assay: holdup assay
Set-up: key: below the threshold = too weak to quantify, mostly under pKd 3.1 to 4
Details: plain residues with an end cap or a label only (N-terminal biotin on a linker: ado-ado)

Chain of Inadl_10, Q8NI35 (Q8NI35 1673-1763): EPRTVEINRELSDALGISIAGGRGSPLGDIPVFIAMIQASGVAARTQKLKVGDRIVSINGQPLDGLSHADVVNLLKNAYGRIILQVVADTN

| Binder | pKd |
| --- | --- |
| TSQESEDTYL [TBC1D10A, Q9BXI6] | below the threshold |
| KKMPSIESDV [GRIN2A, Q12879] | below the threshold |

Biological target: Inadl_5, Q8NI35
Assay: holdup assay
Set-up: key: below the threshold = too weak to quantify, mostly under pKd 3.1 to 4
Details: plain residues with an end cap or a label only (N-terminal biotin on a linker: ado-ado)

Chain of Inadl_5, Q8NI35 (Q8NI35 673-780): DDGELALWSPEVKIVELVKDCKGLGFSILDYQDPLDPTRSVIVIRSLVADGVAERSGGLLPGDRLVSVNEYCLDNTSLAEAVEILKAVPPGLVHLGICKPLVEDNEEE

| Binder | pKd |
| --- | --- |
| TSQESEDTYL [TBC1D10A, Q9BXI6] | below the threshold |
| KKMPSIESDV [GRIN2A, Q12879] | below the threshold |

Biological target: Inadl_9, Q8NI35
Assay: holdup assay
Set-up: key: below the threshold = too weak to quantify, mostly under pKd 3.1 to 4
Details: plain residues with an end cap or a label only (N-terminal biotin on a linker: ado-ado)

Chain of Inadl_9, Q8NI35 (Q8NI35 1530-1615): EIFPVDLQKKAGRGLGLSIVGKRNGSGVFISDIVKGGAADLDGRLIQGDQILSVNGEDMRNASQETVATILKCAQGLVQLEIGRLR

| Binder | pKd |
| --- | --- |
| TSQESEDTYL [TBC1D10A, Q9BXI6] | 3.58 |
| KKMPSIESDV [GRIN2A, Q12879] | below the threshold |

Biological target: LAP2, Q96RT1
Assay: holdup assay
Set-up: key: below the threshold = too weak to quantify, mostly under pKd 3.1 to 4
Details: plain residues with an end cap or a label only (N-terminal biotin on a linker: ado-ado)

Chain of LAP2, Q96RT1 (Q96RT1 other isoform, or with tags, fused parts or gaps): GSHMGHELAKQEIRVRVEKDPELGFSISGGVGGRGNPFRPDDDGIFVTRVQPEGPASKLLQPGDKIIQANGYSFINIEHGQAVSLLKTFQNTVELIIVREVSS

| Binder | pKd |
| --- | --- |
| TSQESEDTYL [TBC1D10A, Q9BXI6] | 3.54 |
| KKMPSIESDV [GRIN2A, Q12879] | 4.6 |

Biological target: T7, LIN7B, Q9HAP6
Assay: holdup assay
Set-up: key: below the threshold = too weak to quantify, mostly under pKd 3.1 to 4
Details: plain residues with an end cap or a label only (N-terminal biotin on a linker: ado-ado)

| Binder | pKd |
| --- | --- |
| TSQESEDTYL [TBC1D10A, Q9BXI6] | below the threshold |
| KKMPSIESDV [GRIN2A, Q12879] | 3.71 |

Biological target: T8, MPDZ_10, O75970
Assay: holdup assay
Set-up: key: below the threshold = too weak to quantify, mostly under pKd 3.1 to 4
Details: plain residues with an end cap or a label only (N-terminal biotin on a linker: ado-ado)

| Binder | pKd |
| --- | --- |
| TSQESEDTYL [TBC1D10A, Q9BXI6] | below the threshold |
| KKMPSIESDV [GRIN2A, Q12879] | below the threshold |

Biological target: NHERF4_4, Q86UT5
Assay: holdup assay
Set-up: key: below the threshold = too weak to quantify, mostly under pKd 3.1 to 4
Details: plain residues with an end cap or a label only (N-terminal biotin on a linker: ado-ado)

Chain of NHERF4_4, Q86UT5 (Q86UT5 464-550): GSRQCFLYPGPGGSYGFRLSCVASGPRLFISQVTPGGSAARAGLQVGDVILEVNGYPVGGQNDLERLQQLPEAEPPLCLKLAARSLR

| Binder | pKd |
| --- | --- |
| TSQESEDTYL [TBC1D10A, Q9BXI6] | below the threshold |
| KKMPSIESDV [GRIN2A, Q12879] | below the threshold |

Biological target: NOS1, P29475
Assay: holdup assay
Set-up: key: below the threshold = too weak to quantify, mostly under pKd 3.1 to 4
Details: plain residues with an end cap or a label only (N-terminal biotin on a linker: ado-ado)

Chain of NOS1, P29475 (P29475 9-101): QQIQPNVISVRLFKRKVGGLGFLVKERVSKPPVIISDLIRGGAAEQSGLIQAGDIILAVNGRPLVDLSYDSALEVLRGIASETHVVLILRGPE

| Binder | pKd |
| --- | --- |
| TSQESEDTYL [TBC1D10A, Q9BXI6] | below the threshold |
| KKMPSIESDV [GRIN2A, Q12879] | below the threshold |

Biological target: T9, PARD3B_1, Q8TEW8
Assay: holdup assay
Set-up: key: below the threshold = too weak to quantify, mostly under pKd 3.1 to 4
Details: plain residues with an end cap or a label only (N-terminal biotin on a linker: ado-ado)

| Binder | pKd |
| --- | --- |
| TSQESEDTYL [TBC1D10A, Q9BXI6] | 4.58 |
| KKMPSIESDV [GRIN2A, Q12879] | below the threshold |

Biological target: T10, PTPN13_1, Q12923
Assay: holdup assay
Set-up: key: below the threshold = too weak to quantify, mostly under pKd 3.1 to 4
Details: plain residues with an end cap or a label only (N-terminal biotin on a linker: ado-ado)

| Binder | pKd |
| --- | --- |
| TSQESEDTYL [TBC1D10A, Q9BXI6] | below the threshold |
| KKMPSIESDV [GRIN2A, Q12879] | below the threshold |

Biological target: T11, RHPN1, Q8TCX5
Assay: holdup assay
Set-up: key: below the threshold = too weak to quantify, mostly under pKd 3.1 to 4
Details: plain residues with an end cap or a label only (N-terminal biotin on a linker: ado-ado)

| Binder | pKd |
| --- | --- |
| TSQESEDTYL [TBC1D10A, Q9BXI6] | 4.45 |
| KKMPSIESDV [GRIN2A, Q12879] | 3.83 |

Biological target: T12, SYNJ2BP, P57105
Assay: holdup assay
Set-up: key: below the threshold = too weak to quantify, mostly under pKd 3.1 to 4
Details: plain residues with an end cap or a label only (N-terminal biotin on a linker: ado-ado)

| Binder | pKd |
| --- | --- |
| TSQESEDTYL [TBC1D10A, Q9BXI6] | 3.93 |
| KKMPSIESDV [GRIN2A, Q12879] | 4.85 |

Biological target: TJP1_3, Q07157
Assay: holdup assay
Set-up: key: below the threshold = too weak to quantify, mostly under pKd 3.1 to 4
Details: plain residues with an end cap or a label only (N-terminal biotin on a linker: ado-ado)

Chain of TJP1_3, Q07157 (Q07157 416-512): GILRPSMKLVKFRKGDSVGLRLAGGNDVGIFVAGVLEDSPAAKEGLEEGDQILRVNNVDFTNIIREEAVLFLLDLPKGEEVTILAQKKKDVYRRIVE

| Binder | pKd |
| --- | --- |
| TSQESEDTYL [TBC1D10A, Q9BXI6] | below the threshold |
| KKMPSIESDV [GRIN2A, Q12879] | below the threshold |

Biological target: TJP2_1, Q9UDY2
Assay: holdup assay
Set-up: key: below the threshold = too weak to quantify, mostly under pKd 3.1 to 4
Details: plain residues with an end cap or a label only (N-terminal biotin on a linker: ado-ado)

Chain of TJP2_1, Q9UDY2 (Q9UDY2 24-128): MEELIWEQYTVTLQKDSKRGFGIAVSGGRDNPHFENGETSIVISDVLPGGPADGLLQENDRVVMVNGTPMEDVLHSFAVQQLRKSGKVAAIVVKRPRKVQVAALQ

| Binder | pKd |
| --- | --- |
| TSQESEDTYL [TBC1D10A, Q9BXI6] | below the threshold |
| KKMPSIESDV [GRIN2A, Q12879] | below the threshold |
